# Reference: patent publication US20050209148A1 (RINAT NEUROSCIENCE, published 2005)
# Read-outs that look alike come from different tables or passages of the source.
# Experiments:
# [1] = molecular target: T1, human TrkB expressed on a stable cell line (human, UniProt Q16620 32-822); assay: cell-based or functional assay
# [2] = molecular target: T1, human TrkB expressed on a stable cell …; assay: cell-based or functional assay; remark: listed apart in the source
# T1 sequence (Q16620 32-822): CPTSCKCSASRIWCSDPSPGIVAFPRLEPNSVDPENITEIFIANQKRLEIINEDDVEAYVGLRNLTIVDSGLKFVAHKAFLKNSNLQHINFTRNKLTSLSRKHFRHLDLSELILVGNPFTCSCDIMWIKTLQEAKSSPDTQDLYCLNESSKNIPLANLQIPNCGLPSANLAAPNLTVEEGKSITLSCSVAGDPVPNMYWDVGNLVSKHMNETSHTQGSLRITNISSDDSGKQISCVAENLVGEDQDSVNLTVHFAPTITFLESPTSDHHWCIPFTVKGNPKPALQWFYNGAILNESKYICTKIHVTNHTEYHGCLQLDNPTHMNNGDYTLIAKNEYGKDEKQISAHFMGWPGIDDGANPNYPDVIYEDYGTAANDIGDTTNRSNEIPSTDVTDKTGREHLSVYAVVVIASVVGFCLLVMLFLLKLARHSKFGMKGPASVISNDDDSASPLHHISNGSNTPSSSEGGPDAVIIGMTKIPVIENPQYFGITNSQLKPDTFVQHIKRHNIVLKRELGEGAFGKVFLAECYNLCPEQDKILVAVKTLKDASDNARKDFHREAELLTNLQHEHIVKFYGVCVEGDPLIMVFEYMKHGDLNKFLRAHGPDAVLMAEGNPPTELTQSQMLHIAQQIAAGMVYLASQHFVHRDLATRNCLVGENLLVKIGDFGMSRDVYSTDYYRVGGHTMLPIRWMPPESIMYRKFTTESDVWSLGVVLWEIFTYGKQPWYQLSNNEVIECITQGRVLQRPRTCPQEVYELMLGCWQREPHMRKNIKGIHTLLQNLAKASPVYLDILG
"EC50 (read off the curve), receptor tyrosine phosphorylation in trkB expressing cell line [1] [pM]","EC50 (read off the curve), receptor tyrosine phosphorylation in trkB expressing cell line [2] [pM]",Binder
~700,~200,human NT-4/5 (mature human neurotrophin-4/5) (ligand) GVSETAPASRRGELAVCDAVSGWVTDRRTAVDLRGREVEVLGEVPAAGGSPLRQYFFETRCKADNAEEGGPGAGGGGCRGVDRRHWVSECKAKQSYVRALTADAQGRVGWRWIRIDTACVCTLLSRTGRA
~1000,–,"1PEG-NT4-G1S (ligand, no PEG; N-terminal serine (position 1) treated with periodate (oxidized to an aldehyde); N-terminal serine (position 1) oxidized to an aldehyde and linked to 20K-m-PEG-HZ (methoxy polyethylene glycol hydrazide, 20 kDa)) chain 1: SVSETAPASRRGELAVCDAVSGWVTDRRTAVDLRGREVEVLGEVPAAGGSPLRQYFFETRCKADNAEEGGPGAGGGGCRGVDRRHWVSECKAKQSYVRALTADAQGRVGWRWIRIDTACVCTLLSRTGRA chain 2: SVSETAPASRRGELAVCDAVSGWVTDRRTAVDLRGREVEVLGEVPAAGGSPLRQYFFETRCKADNAEEGGPGAGGGGCRGVDRRHWVSECKAKQSYVRALTADAQGRVGWRWIRIDTACVCTLLSRTGRA"
~1000,–,"2PEG-NT4-G1S (ligand, N-terminal serine (position 1) oxidized to an aldehyde and linked to 20K-m-PEG-HZ (methoxy polyethylene glycol hydrazide, 20 kDa)) SVSETAPASRRGELAVCDAVSGWVTDRRTAVDLRGREVEVLGEVPAAGGSPLRQYFFETRCKADNAEEGGPGAGGGGCRGVDRRHWVSECKAKQSYVRALTADAQGRVGWRWIRIDTACVCTLLSRTGRA"
